Experimental findings from PMC5262456 (Science Advances, 2016) are described below.

First the molecules themselves.
T1: Spy M53C with MTSL spin label (UniProt P77754 24-161, M53C, MTSL spin label on cysteine 53)
T1 sequence (looked up): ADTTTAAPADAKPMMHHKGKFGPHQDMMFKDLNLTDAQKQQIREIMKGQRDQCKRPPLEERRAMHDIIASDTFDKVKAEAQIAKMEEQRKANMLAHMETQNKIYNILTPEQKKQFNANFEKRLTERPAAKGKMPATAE

T2: Spy T99C with MTSL spin label (UniProt P77754 24-161, T99C, MTSL spin label on cysteine 99)
T2 sequence (looked up): T1 sequence (looked up) with C53M, T99C

T3: Spy M85C with MTSL spin label (UniProt P77754 24-161, M85C, MTSL spin label on cysteine 85)
T3 sequence (looked up): T1 sequence (looked up) with C53M, M85C

T4: Skp (ATP-independent periplasmic chaperone) (UniProt P0AEU7 21-161)
T4 sequence (looked up): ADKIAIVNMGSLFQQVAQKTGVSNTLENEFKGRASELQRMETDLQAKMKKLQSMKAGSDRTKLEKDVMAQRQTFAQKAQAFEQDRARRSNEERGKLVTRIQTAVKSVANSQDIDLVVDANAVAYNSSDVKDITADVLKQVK

T5: SurA (ATP-independent periplasmic chaperone) (UniProt P0ABZ6 21-428)
T5 sequence (looked up): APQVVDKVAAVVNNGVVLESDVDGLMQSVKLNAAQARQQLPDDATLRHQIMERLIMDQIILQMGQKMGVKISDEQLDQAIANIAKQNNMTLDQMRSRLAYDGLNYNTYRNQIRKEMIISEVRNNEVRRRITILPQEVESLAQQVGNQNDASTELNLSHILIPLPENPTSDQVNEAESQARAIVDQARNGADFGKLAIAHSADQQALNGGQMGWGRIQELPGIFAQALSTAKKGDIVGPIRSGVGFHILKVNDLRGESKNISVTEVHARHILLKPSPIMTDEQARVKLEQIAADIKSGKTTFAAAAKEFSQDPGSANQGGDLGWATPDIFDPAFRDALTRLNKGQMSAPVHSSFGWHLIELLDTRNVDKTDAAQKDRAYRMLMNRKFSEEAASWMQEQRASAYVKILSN

B1: Spy (ATP-independent periplasmic chaperone), wild type (natural protein, UniProt P77754 24-161, looked up)
chain: T1 sequence (looked up) with C53M
B2: Im7U T30C with MTSL spin label (natural protein, UniProt Q03708 1-87, looked up)
chain: MELKNSISDYTEAEFVQAAKEIEKENVAACDDVLDVALEHFVKITEHPDGTDLIYYPSDNRDDSPEGIVKEIKEWRAANGKPGFKQG
modifications: MTSL spin label on cysteine 30
B3: Im7, wild type, full length (natural protein, UniProt Q03708 1-87, looked up)
chain: B2 chain with A18L, A19L, C30T, A37L
B4: Im7U T11C with MTSL spin label (natural protein, UniProt Q03708 1-87, looked up)
chain: B2 chain with T11C, C30T
modifications: MTSL spin label on cysteine 11
B5: Im7 L18A L19A L37A (Im7U) (natural protein, UniProt Q03708 1-87, looked up)
chain: B2 chain with C30T

Positions count from the first letter of the chain named. Names may count otherwise.

The data set “AUC” concerns the molecule itself. Briefly: AUC.
Data set [1] deals with B1. Nature of the data set: intramolecular paramagnetic relaxation enhancement.
Data set [2] deals with T1, Spy M53C with MTSL spin label. Briefly: intermolecular paramagnetic relaxation enhancement.
Data set [3] deals with T2, Spy T99C with MTSL spin label. Nature of the data set: intermolecular paramagnetic relaxation enhancement.
Data set [4] addresses T3, Spy M85C with MTSL spin label. Nature of the data set: intermolecular paramagnetic relaxation enhancement.
The target in data set [5] is T4, Skp (ATP-independent periplasmic …).
The target in data set [6] is T5, SurA (ATP-independent periplasmic …).
The target in data set [7] is B1. Briefly: SPR.
In data set [8] the target is T5, SurA (ATP-independent periplasmic …). Nature of the data set: NMR titration.
In data set [9] the target is T4, Skp (ATP-independent periplasmic …). Nature of the data set: NMR titration.
Data set [10] deals with B1. Briefly: ITC. On the technique in general: Isothermal titration calorimetry measures the heat released or taken up as one component is titrated into another.

Broadly, the stoichiometry N is the number of molecules, sites or subunits per partner or assembly. On to B1, for which, in “AUC”, the “stoichiometry N” value amounted to 2.

Regarding B2, in data set [1], the binding result is recorded as “binds”.

In general, Kd refers to the concentration at which binding is half-saturated. Read a high Kd as lower affinity. B3: the binding result in [2], in data set [3] and in data set [4] was “binds” throughout. Besides, the Kd was 66 µM in data set [5], 50 µM in data set [6] and 20.3 ± 3.2 µM in data set [7].

For B4, the binding result in data set [1] is listed as “binds”.

For B5, the binding result in data set [4], in data set [8] and in data set [9] was “binds” throughout. This molecule gave a Kd in data set [10] of 0.327 µM. In data set [10], this molecule gave a dH of 8.9 ± 0.5 kcal/mol.
